Test: soluble on expression in E. coli; label from the status in PepcDB or PDB records

Sequence	soluble on expression in E. coli
MSLKVFYMNVVIITGAASGIGHALSQVCLSNGKTIVMVDKNQDKLHTEAQSFMTKFSPEHVICFACDVTQPSEVERLAEYSCKQLGQVDWIFNNAGIIGNLLPAWELQENDINQVMQVNLHGMLNIIRSFMPYLFKQNFRSHIINMASLYALCTGSQMAAYSMSKHAVLALSESLYFDLNRLKKPVDVSVVFPSFTDTSLLASSGKLNHSPIHNQLNNLLAHSRPAIEVAEHIVREVEQKRFYILPDKEVKGYCEDRTKAILLQENPHRNSVEQLMCSLLKRQSSEANEGHHHHHH	soluble
MGSDKIHHHHHHMRPETAIIEIHGQYRIHTEFYGNPAAQQTIILVNGSLSTTASFAQTVKYLQPHYNVVLYDQPYAGQSKPHNENHTPISKECEARILLELIERFRAEVVMSFSWGGVATLLALAQRPGRIRRAVVNSFSPQLNPAMLDYLHRGLDYLAACDRTQIGNLVNETIGRYLPQLFKRYNFRHVSSLDEHEYHQMHFHIREVLRLNADSYTESFAGIEIPMLFMNGELDIYTTPHEARQFGQLIRGAEFHTIRNAGHFIDVEHKAAWQQTQDALLAFLRPQRTQPLNPIYRPQPNGASVPLAALAS	not soluble
MEIFLSDPISAECPCGPDLEYDPEYLLLFTRAAPREEAQYGDFVSTPENINWAELERDAHRLLMRSKDIRILVVLLRCRIQQAGARGLSEALTLLETLCSTYPDAIHPQLLATEDITAEDAAVARSNALAALLDHEGVMADIRGITLSNNAAMRLQVRDVERSLSALRPADALAPESVRQQLADLEARGTLPLDAFRQAAETTERLQRHARETLNDQAPDFSRLTQLLALLPGAVQSTTPEILPQPQAEQPENATIVHTEQMQAEQIALPVHIAEEISPMTGAEPRQIRDRNDALERLRVIRRWFEHSEPSSPTIPLLRQAERLVGKRVSEVINEIPVELLEKWDALE	not soluble
MKESLKDRIRLWKRLYVNAFENALNAIPNVKGVLLAYNTNIDAIKYLDADDLEKRVTEKGKEKVFEIIENPPEKISSIEELLGGILRSIKLGKAMEWFVESEEVRRYLREWGWDELRIGGQAGIMANLLGGVYRIPTIVHVPQNPKLQAELFVDGPIYVPVFEGNKLKLVHPKDAIAEEEELIHYIYEFPRGFQVFDVQAPRENRFIANADDYNARVYMRREFREGFEEITRNVELAIISGLQVLKEYYPDGTTYKDVLDRVESHLNILNRYNVKSHFEFAYTANRRVREALVELLPKFTSVGLNEVELASIMEIIGDEELAKEVLEGHIFSVIDAMNVLMDETGIERIHFHTYGYYLALTQYRGEEVRDALLFASLAAAAKAMKGNLERIEQIRDALSVPTNERAIVLEEELEKEFTEFENGLIDMVDRQLAFVPTKIVASPKSTVGIGDTISSSAFVSEFGMRKR	soluble
VMPLILLPAVDVVEGRAVRLVQGKAGSQTEYGSAVDAALGWQRDGAEWIHLVDLDAAFGRGSNHELLAEVVGKLDVQVELSGGIRDDESLAAALATGCARVNVGTAALENPQWCARVIGEHGDQVAVGLDVQIIDGEHRLRGRGWETDGGDLWDVLERLDSEGCSRFVVTDITKDGTLGGPNLDLLAGVADRTDAPVIASGGVSSLDDLRAIATLTHRGVEGAIVGKALYARRFTLPQALAAVRD	soluble
MAHHHHHHMCSTNQKLACCSGDNVFDTKENENDSYPQMVNKQLPPKVLEPIVQNKIVEVPKEVYLEKIVEVPQIKTVERIVEQIRPVIKYKNVYKTKTVYVEKIKNVDRIIYQEKIVEVPQIKTVEKIVEVPVYVDRERIITAPRYMVVEKVIPVLKTTKKESVMEIPEVNCPNIDITQEVESKEEIQIEDLKENQTTSVVHEKDIQLLNDLNIQKMHSSATLNAEADQDTTADTIQNDNFCSTVSCKFLPMYDNFPKMQYSMCNGFPEREKRFSSINIYKSKEEGFPKIRISKTPQIIQRNCYCNYA	not soluble
MNDFHRDTWAEVDLDAIYDNVENLRRLLPDDTHIMAVVKANAYGHGDVQVARTALEAGASRLAVAFLDEALALREKGIEAPILVLGASRPADAALAAQQRIALTVFRSDWLEEASALYSGPFPIHFHLKMDTGMGRLGVKDEEETKRIVALIERHPHFVLEGLYTHFATADEVNTDYFSYQYTRFLHMLEWLPSRPPLVHCANSAASLRFPDRTFNMVRFGIAMYGLAPSPGIKPLLPYPLKEAFSLHSRLVHVKKLQPGEKVSYGATYTAQTEEWIGTIPIGYADGWLRRLQHFHVLVDGQKAPIVGRICMDQCMIRLPGPLPVGTKVTLIGRQGDEVISIDDVARHLETINYEVPCTISYRVPRIFFRHKRIMEVRNAIGRGESSA	soluble
MDISSTEIWDAIRRNSYLLYYQPKVDAKTNKIIGFEGLVRLKTATTILAPIDFFDDIVLLNATREMQDFVAETAIKQINQLGGRFSISINIPAHYVASSTYMTFLHDYVKEHLKYPECLEIEIIERGEITELAIADKNLRKIKDLGVKVSMDDFGKGYSSLAYLRSLPIDIVKTDMSFIALLKTDRKQQIIIRAIVNLCHDLGGKVVTEGVEDMEQVEKLREMKVDYFQGYYFSRPLPMEEIKQKYSIV	soluble
MTGSQFPREELFAPGHRGCAGCGAAIVARLALKAAGKNTIVANATGCLEVMTTPYPETAWRVPWIHVAFENAAAVASGIEGAVVALKRKKGKYGEEKVNVIAFGGDGGTADIGFQALSGAMERGHDMVYIMYDNEAYMNTGVQRSGSTPFMASTTTSPAGSHIRGENRPKKDMPMIMAAHGIPYIATASISYPEDFMNKVKKACEVNGPAFIQVLQPCTTGWGYPAENTVEMGRLAVETGVWPLFEIENGEFKLNYKPLKRKPIEEYLKVQKRYRHLKPEDISVIQETIDMKCDEYGL	not soluble
MGSDKIHHHHHHMASSGTEHDAMRARLVDVAQAIVEERGGAGLTLSELAARAGISQANLSRYFETREDLMEAIADYWFHPMVEIMEDVLASDLPPRRKMYEFFARRFVVMRRKWEADPVKLQTYIEVGNDYFEQVRSYIDLADHYLGEIIGEAMSDGAFSGLEVDETISLVNQMCAPYCALNTMTTFMERLSEDKLARIVDAVFDGLSAQDRGARSLTGLRAA	not soluble
MANDEEFFIVRCRGPSSYRESVYKYLTGQPSDWNRNSVFLRNMHVGRAKNVKEIFNCILQTQPLPVVQPCHPVRQPRESFYSSHEHDPMDEVLLQEVKEEAHSLAFKGIPIETKGPTPSSTIMNPEVTLRDVLTFHKNIKRRPQETKPAKFDFSAMPSTSRLPPTSPKRYRQFAPPPISMKQSPKICAKTVSCPSTSEVKSPPKKMIIQKIQKHQEAPKPAKVPKIKGEKKKKDGRQDEQEEIDIELKLSKSTVSSQTLKRHNISFERKPQRGI	not soluble
MSLFMNPHRRFWMVTGWTKSAIWVARWLLGIRWQCQGWEHIEEAVATNKQVVLLSKHQSAWETIAFVAIMPRPLCYVFKRELLYVPFFGWALGMLKMVHINRKDGTNAFASVARQGKERMADGSWIIMFPEGTRTPVGAPNPRYKSGGARLAVDTGAWVIPIAHNSGRLWPRNAFLKYPGLITLSIGPAISSAGKSGDQLNREVQAWIEAEMRRIDADSYEGHHHHHH	not soluble
MSRARCERCLRPAGHCLCPLIPQLPSRTRVLLLQHPSEVNHALNTARLAALGLNNAELVVGEVFEELPALLDQPGYRACLLFPADDARPLQAYAETDVPLLLVVPDGTWRKARKLLHLNPLLAALPRVTLATGVESRYRLRKAPGPGALSTVEAIVQALQVLEAPASFEPLLRPFEALIEGQIAAMGEDTYQRNHAKSAAALEHHHHHH	not soluble
DAMNVMPVLAEIRERKAAHRAGMPSHVINFTLLPMNAVDMAHLQATLGNGPIQLHSRGYGSCRVLATATRDVWSVQFLNAMDTMILDTLEIGDVPAAACAADEDFSDSAERLGEIIEAYFE	not soluble
GMKTLCTHSLPKEKMPYLLRSGEGERYLFGRQVATVMANGRSTGDLFEIVLLSGGKGDAFPLHVHKDTHEGILVLDGKLELTLDGERYLLISGDYANIPAGTPHSYRMQSHRTRLVSYTMKGNVAHLYSVIGNPYDHAEHPPYASEEVSNERFAEAAAVADIVFLDEAKPACSAKLAELTELPDGAVPYVLESGEGDRLLTGDQLHRIVAAQKNTDGQFIVVSSEGPKGDRIVDHYHEYHTETFYCLEGQMTMWTDGQEIQLNPGDFLHVPANTVHSYRLDSHYTKMVGVLVPGLFEPFFRTLGDPYEGHIFPCEPQALRFDRILQNIEALDLKVMKP	soluble
MKMPEHTDTPKEKILVYIRAEKQKTLHRRQVCINDIASVYCKYSRYEGQIKGIIVDKIRGKKSVISVMKIIEQITEIYDDAQVISIGEPEVLVEYDDNSKNKILEA	soluble

Source: the DeepSol protein solubility set
